Paper PMC3949604

Target: AhR (baculovirus);Arnt (baculovirus) (human;human, UniProt P35869;P27540 1-848;1-789, |)
Assay: EMSA

Sequence of AhR (baculovirus);Arnt (baculovirus) (P35869 whole entry, chain 1 of 2): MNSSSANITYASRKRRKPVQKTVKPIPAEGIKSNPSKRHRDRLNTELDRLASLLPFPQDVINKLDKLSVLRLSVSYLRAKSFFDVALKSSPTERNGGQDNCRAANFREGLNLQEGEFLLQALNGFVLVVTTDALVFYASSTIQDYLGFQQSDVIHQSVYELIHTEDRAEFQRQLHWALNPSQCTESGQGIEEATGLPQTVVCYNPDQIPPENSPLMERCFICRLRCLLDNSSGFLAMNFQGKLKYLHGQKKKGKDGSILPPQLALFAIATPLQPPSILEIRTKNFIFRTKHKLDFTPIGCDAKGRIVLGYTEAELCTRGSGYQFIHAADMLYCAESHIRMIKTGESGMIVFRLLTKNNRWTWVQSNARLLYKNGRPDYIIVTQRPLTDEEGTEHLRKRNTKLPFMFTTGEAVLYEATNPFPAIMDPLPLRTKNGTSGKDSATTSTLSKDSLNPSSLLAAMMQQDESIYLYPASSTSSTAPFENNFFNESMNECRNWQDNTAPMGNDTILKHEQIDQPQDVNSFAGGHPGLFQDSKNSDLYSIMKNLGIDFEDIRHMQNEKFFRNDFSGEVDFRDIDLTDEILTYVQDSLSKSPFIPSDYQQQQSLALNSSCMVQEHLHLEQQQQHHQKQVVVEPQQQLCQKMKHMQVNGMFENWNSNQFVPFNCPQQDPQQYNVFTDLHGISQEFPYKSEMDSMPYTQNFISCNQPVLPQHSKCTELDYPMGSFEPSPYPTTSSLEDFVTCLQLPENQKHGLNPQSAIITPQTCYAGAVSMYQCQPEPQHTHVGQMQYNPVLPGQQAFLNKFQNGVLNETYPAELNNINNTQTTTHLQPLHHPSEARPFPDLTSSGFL
Sequence of AhR (baculovirus);Arnt (baculovirus) (P27540 whole entry, chain 2 of 2): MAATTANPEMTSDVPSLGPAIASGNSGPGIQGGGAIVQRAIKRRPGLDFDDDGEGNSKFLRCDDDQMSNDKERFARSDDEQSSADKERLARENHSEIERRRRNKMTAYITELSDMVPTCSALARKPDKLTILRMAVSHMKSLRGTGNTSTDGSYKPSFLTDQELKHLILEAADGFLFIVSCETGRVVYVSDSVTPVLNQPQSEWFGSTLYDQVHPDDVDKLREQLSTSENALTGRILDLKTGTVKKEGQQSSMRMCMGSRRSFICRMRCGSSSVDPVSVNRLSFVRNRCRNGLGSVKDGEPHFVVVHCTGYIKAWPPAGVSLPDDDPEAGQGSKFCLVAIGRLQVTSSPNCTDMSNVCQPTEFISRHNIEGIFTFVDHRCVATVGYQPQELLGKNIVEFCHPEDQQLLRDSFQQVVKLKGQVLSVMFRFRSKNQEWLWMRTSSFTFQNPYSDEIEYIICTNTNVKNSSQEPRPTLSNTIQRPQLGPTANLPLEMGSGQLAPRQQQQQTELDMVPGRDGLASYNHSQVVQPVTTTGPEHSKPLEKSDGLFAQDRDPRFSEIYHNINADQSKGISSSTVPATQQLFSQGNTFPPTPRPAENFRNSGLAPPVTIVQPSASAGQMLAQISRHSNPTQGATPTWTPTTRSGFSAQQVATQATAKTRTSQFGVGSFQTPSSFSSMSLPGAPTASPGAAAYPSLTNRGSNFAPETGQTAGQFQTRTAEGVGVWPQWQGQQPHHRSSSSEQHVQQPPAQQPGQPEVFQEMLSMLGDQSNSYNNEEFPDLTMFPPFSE

B1: DRE gel shift probe (OL439/OL440) (dsDNA)
DNA 1: TCGAGTAGATCACGCAATGGGCCCAGC
DNA 2: TCGAGCTGGGCCCATTGCGTGATCTAC
binding result: binds
